Data on two substances can be found in patent US20110212091A1.

The target in assay [1] is Recombinant human FGFR4-Fc (R&D Systems Cat # 685-FR) (human) (UniProt P22455). In words: competition ELISA: FGFR4-Fc preincubated with soluble FGF2, binding to immobilized FGF2-heparin. (In general: In an ELISA, binding on a coated surface is turned into a signal by an enzyme label.)
Assay [2] has the same target. Briefly: competition ELISA: FGFR4-Fc preincubated with soluble FGF1, binding to immobilized FGF2-heparin.

For orientation: IC50 means the concentration that inhibits the measured activity by half. For the substance “recombinant human FGF2 (R&D Systems, Cat# 233-FB) (from UniProt P09038 143-288) (ligand)”, the IC50 in assay [1] amounted to 0.691 nM.
With “FGF1 (soluble) (from UniProt P05230 16-155) (ligand)”, in assay [2], the IC50 is 0.733 nM.
